What all share (details): remark: other sources report otherwise
Assay [1] has as its target T1, N- (neural) cadherin of human fibroblasts (human (endogenous in primary fibroblasts)), P19022.
T1 chain: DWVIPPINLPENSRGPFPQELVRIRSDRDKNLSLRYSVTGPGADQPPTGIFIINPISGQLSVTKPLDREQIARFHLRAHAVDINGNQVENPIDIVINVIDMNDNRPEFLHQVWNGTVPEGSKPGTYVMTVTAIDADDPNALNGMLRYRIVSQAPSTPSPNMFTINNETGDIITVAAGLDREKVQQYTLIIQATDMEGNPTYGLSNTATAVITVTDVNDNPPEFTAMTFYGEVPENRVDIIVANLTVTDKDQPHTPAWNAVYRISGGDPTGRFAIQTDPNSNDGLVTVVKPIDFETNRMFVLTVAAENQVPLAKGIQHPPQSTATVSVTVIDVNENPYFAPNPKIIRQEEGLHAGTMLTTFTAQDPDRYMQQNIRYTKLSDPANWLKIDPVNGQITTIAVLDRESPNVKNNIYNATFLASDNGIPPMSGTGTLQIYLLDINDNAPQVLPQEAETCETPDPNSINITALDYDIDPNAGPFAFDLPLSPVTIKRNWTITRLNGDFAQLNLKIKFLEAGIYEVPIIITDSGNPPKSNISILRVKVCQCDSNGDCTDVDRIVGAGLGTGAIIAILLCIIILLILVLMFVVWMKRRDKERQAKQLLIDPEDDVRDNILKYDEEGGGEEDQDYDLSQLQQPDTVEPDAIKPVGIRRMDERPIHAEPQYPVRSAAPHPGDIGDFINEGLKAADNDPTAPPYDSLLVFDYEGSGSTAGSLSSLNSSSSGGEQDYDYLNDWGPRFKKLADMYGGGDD
The experiment in a line: AFM single-cell force spectroscopy; with 5 µM ML-7 (myosin light chain kinase inhibited); cell on cantilever against cell monolayer.

Assay [2] deals with T1, N- (neural) cadherin of human …. The assay is described as follows: AFM single-cell force spectroscopy; DMSO control of the drug series; cell on cantilever against cell monolayer.
The target is the same in assay [3]. The assay is described as follows: AFM single-cell force spectroscopy; with 5 µM cytochalasin D (actin filaments disassembled); cell on cantilever against cell monolayer.
Assay [4] shares this target. The experiment in a line: AFM single-cell force spectroscopy; control of the drug series (no drug and no DMSO); cell on cantilever against cell monolayer; velocity not stated for this series.
The target is the same in assay [5]. The experiment in a line: AFM single-cell force spectroscopy; as a1, approach and retract velocity 10 µm/sec.
The target is the same in assay [6]. The experiment in a line: AFM single-cell force spectroscopy; as a1, approach and retract velocity 7.5 µm/sec.
For assay [7] the target is unchanged. The assay is described as follows: AFM single-cell force spectroscopy; DMSO control of the drug series; cell on cantilever against cell monolayer.
Assay [8] has the same target. The assay is described as follows: AFM single-cell force spectroscopy; control of the drug series (no drug and no DMSO); cell on cantilever against cell monolayer; velocity not stated for this series.
Assay [9] has the same target. The experiment in a line: AFM single-cell force spectroscopy; as a1, approach and retract velocity 5 µm/sec.
For assay [10] the target is unchanged. The experiment in a line: AFM single-cell force spectroscopy; living cell on a conA-coated tipless cantilever against a cell monolayer in a Petri dish; approach and retract velocity 3 µm/sec, maximum loading force 3 nN, contact time 2 s; 5% CO2; cadherin type assigned from immunofluorescence.

B1: N- (neural) cadherin of human fibroblasts, P19022 160-906 (natural protein)
chain: DWVIPPINLPENSRGPFPQELVRIRSDRDKNLSLRYSVTGPGADQPPTGIFIINPISGQLSVTKPLDREQIARFHLRAHAVDINGNQVENPIDIVINVIDMNDNRPEFLHQVWNGTVPEGSKPGTYVMTVTAIDADDPNALNGMLRYRIVSQAPSTPSPNMFTINNETGDIITVAAGLDREKVQQYTLIIQATDMEGNPTYGLSNTATAVITVTDVNDNPPEFTAMTFYGEVPENRVDIIVANLTVTDKDQPHTPAWNAVYRISGGDPTGRFAIQTDPNSNDGLVTVVKPIDFETNRMFVLTVAAENQVPLAKGIQHPPQSTATVSVTVIDVNENPYFAPNPKIIRQEEGLHAGTMLTTFTAQDPDRYMQQNIRYTKLSDPANWLKIDPVNGQITTIAVLDRESPNVKNNIYNATFLASDNGIPPMSGTGTLQIYLLDINDNAPQVLPQEAETCETPDPNSINITALDYDIDPNAGPFAFDLPLSPVTIKRNWTITRLNGDFAQLNLKIKFLEAGIYEVPIIITDSGNPPKSNISILRVKVCQCDSNGDCTDVDRIVGAGLGTGAIIAILLCIIILLILVLMFVVWMKRRDKERQAKQLLIDPEDDVRDNILKYDEEGGGEEDQDYDLSQLQQPDTVEPDAIKPVGIRRMDERPIHAEPQYPVRSAAPHPGDIGDFINEGLKAADNDPTAPPYDSLLVFDYEGSGSTAGSLSSLNSSSSGGEQDYDYLNDWGPRFKKLADMYGGGDD
As to B1, the median rupture force (NF–NF cells) in assay [1] was found to be 48.9 pN; in assay [2] it was 52 pN; in assay [3] it was 31.1 pN; in assay [4], 58.8 pN; in assay [5], 117 pN; in assay [6], 97.2 pN. For the same molecule, the median rupture force (NF–NF cells) in assay [7] came to 60.2 pN; in assay [8], 61.9 pN; in assay [9] it was 73.4 pN; in [10], 51.9 pN. Further, the median rupture force (SF–SF cells) turned out to be 49 pN in assay [1]; 53.1 pN in assay [2]; 30.5 pN in [3]; 66.2 pN in assay [4]; 129 pN in assay [5]; 103 pN in assay [6]. Moreover, the median rupture force (SF–SF cells) in assay [7] came out at 48.3 pN; in [8], 58.4 pN; in assay [9], 74.2 pN; in [10] it was 45.2 pN.

Source of the values: paper PMC8190030.
